Results as given in US6649364.

Tests used:
[1] = target: α-actin purified from rabbit skeletal muscle, globular (G-actin) form, P68135
[2] = target: DNase I (Sigma, St. Louis, Mo.)

B1: highly purified human recombinant ICE (p20/p10) (Merck) (protein)
chain 1: NPAMPTSSGSEGNVKLCSLEEAQRIWKQKSAEIYPIMDKSSRTRLALIICNEEFDSIPRRTGAEVDITGMTMLLQNLGYSVDVKKNLTASDMTTELEAFAHRPEHKTSDSTFLVFMSHGIREGICGKKHSEQVPDILQLNAIFNMLNTKNCPSLKDKPKVIIIQACRGDSPGVVWFKD
chain 2: AIKKAHIEKDFIAFCSSTPDNVSWRHPTMGSVFIGRLIEHMQEYACSCDVEEIFRKVRFSFEQPDGRAQMPTTERVTLTRCFYLFPGH
- cleavage of purified actin (SDS-polyacrylamide gel electrophoresis) [1]: In the presence of ICE, actin was cleaved, resulting in a disappearance of the 42 kd band, and the appearance of bands at approximately 41 kd, 30 kd, and 14 kd
- cleavage of DNase I and its endonuclease activity [2]: Control incubations without actin demonstrated that ICE neither cleaved DNase I nor affected its endonuclease activity
